Laboratory results published in the supplement of paper PMC10266784.

B1: library; numbered along this chain (parent)
chain: MAAAAAAAAEQQSSNGPVKKSMREKAVERRSVNKEHNSNFKAGYIPIDEDRLHKTGLRGRKGNLAICVIILLFILAVINLIITLVIWAVIRIGPNGCDSMEFHESGLLRFKQVSDMGVIHPLYKSTVGGRRNENLVITGNNQPIVFQQGTTKLSVENNKTSITSDIGMQFFDPRTQNILFSTDYETHEFHLPSGVKSLNVQKASTERITSNATSDLNIKVDGRAIVRGNEGVFIMGKTIEFHMGGNMELKAENSIILNGSVMVSTTRLPSSSSGDQLGSGDWVRYKLCMCADGTLFKVQVTSQNMGCQISDNPCGNTH

Variants of: B1
Test: SGCB cell-surface expression functional score (HA stain, bin4 vs bin1, normalised to synonymous) (log10 ratio); higher = more cell-surface SGCB (functional)
Summary of the method: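 HEK293 cells stably expressing alpha-, gamma- and delta-sarcoglycan received codon-saturation libraries of HA-tagged, YFP-fused human beta-sarcoglycan by lentiviral transduction at MOI <0.1, performed in duplicate. Cells positive for YFP were sorted after 72 hours and cultured for 5–7 days, then stained on ice with Alexa Fluor 647 anti-HA and fixed. Fixed cells were sorted into four 5% intensity bins and amplicon-sequenced, and the log ratio of highest-bin to lowest-bin variant frequency, as a median over codons and transductions, gives the functional score. Per section, synonymous variants were scaled to mean 0, SD 0.5.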

SGCB cell-surface expression functional score (log10), by site and new letter:
E104: R 0.26, Y 0.03, Q 0.18, F -0.24, V 0, T 0.51, A 0.22, K 0.13, D 0.17, N -0.11, C 0.35, G -0.1, P 0.47, L -0.18, S 0.39, W -0.09, I 0.01, H 0.28, M 0.11
V89: C 0, P -0.88, A -0.23, G -0.36, S -0.41, R -0.63, H -1.8, M -0.96, F -1.21, I -0.52, Y -1.29, K 0.02, Q -1.44, W -1.16, N -2.05, D -2.32, E -0.95, T -0.3, L -1.13
I90: W -0.2, P -1.1, T 0.06, M -0.16, C 0.33, S -0.35, A 0.12, V 0.01, F -1.5, E -1.22, Y -1.02, D -0.63, H -1.82, Q -0.71, R -0.63, K 0.13, L 0.26, G -0.76, N 0.07
P94: C -0.07, W 0.26, K 0.29, M 0.27, L -0.17, E -0.29, A 0.03, G -0.25, F 0.24, I -0.61, S -0.11, Q 0.21, T -0.07, V -0.24, R -0.65, H 0.01, D -1.08, N -0.88, Y 0.29
R91: L -1.93, K 0.34, H 0, V -1.43, G -0.52, W -1.69, Q 0.15, I -1.85, A -0.38, D -1.32, E -0.8, S -0.79, C -0.72, T -2.04, F -1.71, Y -1.94, M -1.94, P -1.76, N -0.75
N95: A 0.01, L -0.06, Q -0.12, C -0.17, R -0.09, M 0.68, I -0.83, K 0.16, W 0.34, H -1.18, T -0.1, E 0.05, S 0.16, V -0.38, G 0.21, P -1.26, Y 0.15, D -0.24, F 0.3
C97: Q -1.14, S -0.18, M -0.29, A -0.14, V 0.16, E -1.87, P -0.47, T -0.03, F -1.5, R -1.75, I 0.31, K -1.3, N -1.16, L 0.37, W -1.46, G -1.91, D -2.33, Y -1.89, H -2.29
E101: V -0.43, C -1.14, A -0.15, I -0.3, K -0.77, P -1.78, N -1.22, H -1.14, G -0.26, S -0.39, R -0.59, L -0.35, D -0.49, W -1.04, T -0.54, F -0.8, Y -0.43, M -0.63, Q -0.15
H103: I -0.36, P -0.42, C -0.1, R 0.14, N 0.13, S 0.06, E -0.33, D 0, K -0.02, V 0.29, Q 0.36, L 0.33, T 0.65, W 0.06, G 0.07, F -0.14, Y -0.3, A 0.32, M -0.23
S99: P -0.38, K -1.57, V 0.15, C -0.72, E -1.96, G -0.07, I -0.54, D -1.16, H -0.65, F 0.86, L 0.18, W -0.35, N -0.77, M 0.21, Y 0.12, R -1.61, T -0.4, Q -2.34, A -0.01
G106: E -0.58, C -1.9, I -1.82, K -0.63, A -0.24, F -1.86, H -0.43, D -0.65
A88: Y 0.01, T 0.17, W -0.36, V 0.25
S105: N -0.63, A -0.09, Y 0.11, W 0.26, Q -0.11, H 0, F -0.75, M -0.33, L -0.66, E -0.29, K -0.5, C -0.21, D 0.04, P -1.03, V -0.62, I -0.75, G -0.15, T -0.09, R -0.4
D98: F -0.64, V -0.14, L 0.1, T 0.06, N -0.3, E -0.21, G -0.2, M 0.01, S 0.3, P -0.12, R -0.16, I -1, H 0.4, W -0.73, C -0.07, Q -0.02, A 0.32, K -0.4, Y -0.66
M100: G -1.04, V -0.03, Q -1.26, D -1.82, E -1.92, A -1.33, R -1.19, F -0.46, C -1.81, W -1.82, K -2.02, P -2.03, Y -2.14, S -2.02, T -1.55, H -1.39, I -0.14, N -2.37
I92: D -2.38, T -1.03, H -1.9, E -2.15, S -2.23, K -1.31, L -0.39, F -0.74, A -1.94, V -0.31, R -1.46, Y -2.16, M -0.21, G -0.75, N -1.68, Q -1.97, P -1.96, W -2.43, C -1.75
G96: K -2.21, R -1.51, V -1.95, N -2.04, P -1.62, M -1.68, I -1.54, D -2.13, H -1.77, L -2.08, E -1.89, Q -2.14, S -1.81, T -1.72, C -1.66, Y -2.29, W -0.61, F -2.5, A -1.24
F102: A -1.01, W -0.12, D -0.88, S -1.18, I -1.26, P -1.4, N -1.53, Y -1.16, R -1.14, T -1.16, V -1.57, K -1.02, C -1.3, G -0.51, M -0.45, Q -1.39, L -0.5, E -1.93, H 0.01
G93: F -1.18, Y -1.86, S -0.25, M -1.49, A -0.97, W -0.45, Q -0.8, I -2.15, D -0.19, E -1.2, T 0.23, P -1.64, R -0.4, V -1.79, C -1.43, K -0.15, L -1.84, N -0.14, H 0.32
